From publication PMC4188797 (Neuropharmacology, 2014)

Target: the molecule itself
Experiment: SDS-PAGE and immunoblot of dimer bands in subcellular fractions

B1: metabotropic glutamate receptor 1 splice variant mGluR1b (endogenous, rat brain) (receptor, rat (endogenous in rat brain), UniProt P23385-2 19-906, looked up)
chain: LPRMPDRKVLLAGASSQRSVARMDGDVIIGALFSVHHQPPAEKVPERKCGEIREQYGIQRVEAMFHTLDKINADPVLLPNITLGSEIRDSCWHSSVALEQSIEFIRDSLISIRDEKDGLNRCLPDGQTLPPGRTKKPIAGVIGPGSSSVAIQVQNLLQLFDIPQIAYSATSIDLSDKTLYKYFLRVVPSDTLQARAMLDIVKRYNWTYVSAVHTEGNYGESGMDAFKELAAQEGLCIAHSDKIYSNAGEKSFDRLLRKLRERLPKARVVVCFCEGMTVRGLLSAMRRLGVVGEFSLIGSDGWADRDEVIEGYEVEANGGITIKLQSPEVRSFDDYFLKLRLDTNTRNPWFPEFWQHRFQCRLPGHLLENPNFKKVCTGNESLEENYVQDSKMGFVINAIYAMAHGLQNMHHALCPGHVGLCDAMKPIDGRKLLDFLIKSSFVGVSGEEVWFDEKGDAPGRYDIMNLQYTEANRYDYVHVGTWHEGVLNIDDYKIQMNKSGMVRSVCSEPCLKGQIKVIRKGEVSCCWICTACKENEFVQDEFTCRACDLGWWPNAELTGCEPIPVRYLEWSDIESIIAIAFSCLGILVTLFVTLIFVLYRDTPVVKSSSRELCYIILAGIFLGYVCPFTLIAKPTTTSCYLQRLLVGLSSAMCYSALVTKTNRIARILAGSKKKICTRKPRFMSAWAQVIIASILISVQLTLVVTLIIMEPPMPILSYPSIKEVYLICNTSNLGVVAPVGYNGLLIMSCTYYAFKTRNVPANFNEAKYIAFTMYTTCIIWLAFVPIYFGSNYKIITTCFAVSLSVTVALGCMFTPKMYIIIAKPERNVRSAFTTSDVVRMHVGDGKLPCRSNTFLNIFRRKKPGAGNAKKRQPEFSPSSQCPSAHAQL
- stoichiometry N: 2
